This is an account of results in article PMC4980159 (Biochemistry, 2016).

In assay [1] the target is Fibronectin (Homo sapiens) (UniProt P02751). The note with it: cited from earlier work.
In assay [2] the target is CEACAM5 N-terminal domain (Homo sapiens) (UniProt P06731). Particulars: cited from earlier work.
Assay [3] addresses Fluorescently labeled NCCM1 H139C (human) (UniProt P13688). Briefly: fluorescence polarisation. On the technique in general: In fluorescence polarisation assays a small probe gives low polarisation when free and higher when bound to something large.
The target in assay [4] is Fluorescently labeled NCCM3 H139C (human) (UniProt P40198). Nature of the assay: fluorescence polarisation.
Assay [5] deals with CEACAM5 N-terminal domain (Homo sapiens) (UniProt P06731). Particulars: cited from earlier work. The source holds these as a separate data set.
Target sequence in this assay (P06731 35-144): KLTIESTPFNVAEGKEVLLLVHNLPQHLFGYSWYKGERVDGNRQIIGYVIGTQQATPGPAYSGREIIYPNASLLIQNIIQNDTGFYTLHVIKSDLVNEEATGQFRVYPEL
For assay [6], the target named is Recombinant OpaD reconstituted into liposomes (N. gonorrhoeae strain FA1090, UniProt Q04883 2-243). Nature of the assay: fluorescence polarisation.

Where two headings read alike, the source gives them in different places.

A word on the Kd: it is the concentration at which binding is half-saturated.

Sequence of Fibronectin (Homo sapiens) (P02751 32-2477): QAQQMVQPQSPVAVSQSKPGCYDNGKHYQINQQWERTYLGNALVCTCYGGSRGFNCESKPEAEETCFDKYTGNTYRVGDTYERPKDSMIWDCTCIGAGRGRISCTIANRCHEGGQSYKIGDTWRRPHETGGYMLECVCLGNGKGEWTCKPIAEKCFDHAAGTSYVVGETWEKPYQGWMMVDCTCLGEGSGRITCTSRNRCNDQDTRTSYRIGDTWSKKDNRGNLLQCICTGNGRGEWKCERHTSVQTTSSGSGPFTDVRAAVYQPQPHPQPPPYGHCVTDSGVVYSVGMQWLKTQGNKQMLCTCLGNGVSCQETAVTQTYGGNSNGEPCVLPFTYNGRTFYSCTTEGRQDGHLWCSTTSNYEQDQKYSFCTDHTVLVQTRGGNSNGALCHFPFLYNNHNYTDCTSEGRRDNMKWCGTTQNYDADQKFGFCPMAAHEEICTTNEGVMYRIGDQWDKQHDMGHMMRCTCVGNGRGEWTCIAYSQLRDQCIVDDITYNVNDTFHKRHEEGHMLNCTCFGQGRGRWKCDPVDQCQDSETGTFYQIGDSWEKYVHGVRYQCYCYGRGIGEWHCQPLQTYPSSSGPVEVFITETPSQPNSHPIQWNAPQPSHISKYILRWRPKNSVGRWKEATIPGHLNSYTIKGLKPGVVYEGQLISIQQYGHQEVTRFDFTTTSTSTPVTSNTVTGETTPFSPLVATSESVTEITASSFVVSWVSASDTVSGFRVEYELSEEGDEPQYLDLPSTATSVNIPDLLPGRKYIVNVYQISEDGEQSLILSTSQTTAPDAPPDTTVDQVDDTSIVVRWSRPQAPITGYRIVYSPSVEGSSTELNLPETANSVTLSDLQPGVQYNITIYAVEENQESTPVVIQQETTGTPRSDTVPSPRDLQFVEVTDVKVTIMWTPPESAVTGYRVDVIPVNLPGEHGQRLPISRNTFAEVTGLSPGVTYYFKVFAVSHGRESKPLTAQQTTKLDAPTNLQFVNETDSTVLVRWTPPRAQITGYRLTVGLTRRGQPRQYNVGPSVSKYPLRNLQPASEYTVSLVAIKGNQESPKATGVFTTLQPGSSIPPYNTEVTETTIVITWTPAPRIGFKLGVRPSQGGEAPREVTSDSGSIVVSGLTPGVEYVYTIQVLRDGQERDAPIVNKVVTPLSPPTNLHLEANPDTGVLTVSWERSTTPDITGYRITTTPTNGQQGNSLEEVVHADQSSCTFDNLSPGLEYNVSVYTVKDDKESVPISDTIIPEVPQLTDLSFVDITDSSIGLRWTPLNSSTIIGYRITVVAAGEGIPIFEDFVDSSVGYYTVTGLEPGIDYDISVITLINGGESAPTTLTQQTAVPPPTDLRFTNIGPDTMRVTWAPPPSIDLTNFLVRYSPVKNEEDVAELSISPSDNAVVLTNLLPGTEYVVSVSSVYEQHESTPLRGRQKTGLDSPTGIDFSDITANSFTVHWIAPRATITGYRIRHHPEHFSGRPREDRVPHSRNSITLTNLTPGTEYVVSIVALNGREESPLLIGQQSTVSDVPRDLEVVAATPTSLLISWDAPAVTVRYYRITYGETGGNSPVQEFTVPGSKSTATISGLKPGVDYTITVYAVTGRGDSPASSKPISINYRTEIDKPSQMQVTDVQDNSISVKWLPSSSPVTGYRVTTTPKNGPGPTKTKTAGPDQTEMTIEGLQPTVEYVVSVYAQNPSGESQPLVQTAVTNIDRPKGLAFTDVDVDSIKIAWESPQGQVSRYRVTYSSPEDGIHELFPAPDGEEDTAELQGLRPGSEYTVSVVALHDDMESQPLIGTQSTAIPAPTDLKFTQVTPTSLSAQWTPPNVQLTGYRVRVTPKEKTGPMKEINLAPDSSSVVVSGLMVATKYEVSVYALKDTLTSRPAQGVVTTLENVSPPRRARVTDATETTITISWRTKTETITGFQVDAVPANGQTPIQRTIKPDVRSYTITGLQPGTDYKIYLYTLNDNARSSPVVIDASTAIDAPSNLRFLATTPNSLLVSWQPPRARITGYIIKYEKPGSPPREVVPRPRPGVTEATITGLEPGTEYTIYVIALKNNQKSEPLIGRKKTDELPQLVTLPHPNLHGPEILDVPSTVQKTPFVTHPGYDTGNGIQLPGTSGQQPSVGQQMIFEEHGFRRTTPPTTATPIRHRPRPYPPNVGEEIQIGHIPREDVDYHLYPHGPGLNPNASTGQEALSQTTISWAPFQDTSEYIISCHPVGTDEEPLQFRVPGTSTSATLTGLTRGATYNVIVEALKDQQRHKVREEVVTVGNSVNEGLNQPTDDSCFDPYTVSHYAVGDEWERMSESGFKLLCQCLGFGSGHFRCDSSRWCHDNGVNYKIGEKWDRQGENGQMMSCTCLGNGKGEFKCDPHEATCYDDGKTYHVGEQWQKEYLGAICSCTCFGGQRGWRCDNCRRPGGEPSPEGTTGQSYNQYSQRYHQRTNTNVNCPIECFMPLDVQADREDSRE

Take “CEACAM5 N-terminal domain (from UniProt P06731)”: the Kd is 16 nM in assay [1] and 100 nM in assay [2].

Consider “Recombinant Opa60 reconstituted into liposomes (natural protein)”, for which the dissociation constant (Kd) in assay [3] is 1.6 nM; in assay [4] it was 4.3 nM.

On to CEACAM5 A3 domain (from UniProt P06731), for which the dissociation constant Kd in assay [5] was 18 nM.

B1: Fluorescently labeled NCCM3 H139C (domain or fragment, human)
chain: PGSGAKLTIESMPLSVAEGKEVLLLVHNLPQHLFGYSWYKGERVDGNSLIVGYVIGTQQATPGAAYSGRETIYTNASLLIQNVTQNDIGFYTLQVIKSDLVNEEATGQFCVYQ
modifications: AMS (4-acetamido-4'-maleimidylstilbene-2,2'-disulfonic acid) on the introduced cysteine (H139C)
Take B1: the Kd in assay [6] was determined as 6.8 ± 2.2 nM.

B2: Fluorescently labeled NCCM1 H139C (domain or fragment, human, UniProt P13688-1 35-141, looked up)
chain: QLTTESMPFNVAEGKEVLLLVHNLPQQLFGYSWYKGERVDGNRQIVGYAIGTQQATPGPANSGRETIYPNASLLIQNVTQNDTGFYTLQVIKSDLVNEEATGQFCVY
modifications: AMS (4-acetamido-4'-maleimidylstilbene-2,2'-disulfonic acid) on the introduced cysteine (H139C)
In the case of B2, the Kd in assay [6] was 2.6 ± 1.3 nM.
